Like-named read-outs stand apart in the source and are kept apart here. Non-standard residues stand in square brackets, D forms with d. Residues, ends and D or L forms follow the SMILES beside them. No end group written: not given here.

The subject of data set [1] is SHSY-5Y neuroblastoma cells. Description: LDH assay, protection against Aβ42-mediated toxicity. The format is cell-based. Conditions: 5 μM Aβ42 plus 0.1-10 μM peptide, 24 h. The protocol: For cell toxicity assays (Example 3), SHSY-5Y neuroblastoma cells were maintained in 10% Fetal Calf Serum supplemented Dulbecco's Modified Eagle Medium (DMEM, Gibco) under standard mammalian cell culture conditions. The cells were transferred to sterile 96-well growth plates at 20,000 cells/well and 4 wells per condition. To test for any toxic effects of RI-OR2-TAT alone on the cells, they were left to adhere for 24 h before the addition of the inhibitor (at 12.5, 25, 50, 100 and 200 μM), in DMEM. To look at the ability of RI-OR2-TAT to protect against Aβ toxicity, the cell growth medium was changed to Optimem (Invitrogen) and Aβ42, pre-aggregated (at 100 μM) for 24 h at 25° C. in PBS, was added to the cells at a concentration of 5 μM, together with various amounts (0, 0.1, 0.5, 1, 5 or 10 μM) of RI-OR2-TAT. In each case, after a further 24 h incubation period, the viability of the cells was assessed using a CytoTox 96® Non-Radioactive Cytotoxicity Assay (LDH) Assay (Promega) kit.

Data set [2] addresses T1, Aβ42 (Homo sapiens, UniProt P05067).
T1 construct: Recombinant Aβ42, Ultrapure, was purchased from rPeptide, Bogart, Ga., USA; purchased rPeptide, Bogart, Ga., USA
As to the kind of experiment: Thioflavin T (ThT) assay for Aβ fibrils. It counts as biochemical. To be noted: for % of control: Aβ alone = 100. The protocol:
This method was the same as that published previously. Briefly, 60 μl samples of solutions containing Aβ42 (25 μM), ThT (15 μM) and between 0 and 125 μM RI-OR2 or RI-OR2-TAT, in 10 mM phosphate buffered saline (PBS), pH 7.4, were incubated in sealed, black, clear-bottomed 384-well plates (Corning). ThT fluorescence was monitored every 10 mins (λex=442 nm, λem=483 nm) for 48 h at 30° C. in a Biotek Synergy 2 plate reader.

The target in data set [3] is T2, Aβ42 fibrils (Homo sapiens, UniProt P05067).
T2 construct: purchased rPeptide, Bogart, Ga., USA
Description: Surface plasmon resonance binding to immobilized Aβ42 fibrils. The text has this: SPR (Surface Plasmon Resonance) is a technique that can be used to measure the affinity of a substance for a substrate. The substrate (in this case Aβ fibrils) is bound to a solid surface and excited using a laser light source. The compound to be tested (e.g. PINPs) is allowed to flow over the bound substrate in suspension/solution and the emission spectra of the substrate will change if the compound binds. A second solution, without the test compound, can then added to elute any bound compound and the emission spectra may be observed to note loss of bound compound from the substrate. For a specific example regarding peptide binding to Aβ see reference (30).
In the examples presented here, The substance is introduced at a flow rate of 30 uL/min for 5 minute over the immobilized substrate. There is a spike in the signal which is due to the introduction of solvent without PINPs to show removal of the peptide bound to the Aβ fibrils. There are two plots related to addition of peptide at two different concentrations, 1 and 3 μM, plus a computer generated fitted curve for each one.
These experiments were conducted using a Sensi Q semi-automatic SPR machine (ICx Nomadics). This apparatus has two parallel flow cells; one was used to immobilize Aβ42 fibrils while the other was used as “reference” (empty surface). A COOH5 sensor chip (ICx Nomadics) was employed for this purpose and the peptide was immobilized by amine coupling chemistry. Briefly, after surface activation, the peptide preparation was diluted to 10 μM in acetate buffer (pH 4.0) and then injected for 5 min at a flow rate of 30 μL/min. Any remaining activated groups were blocked with ethanolamine (pH 8.0). The final immobilization level was ˜5,000 resonance units (1 RU=1 pg of protein/mm^2). The empty “reference” surface was prepared in parallel using the same immobilization procedure, but without addition of the peptide. Sensorgrams were then obtained via injection of three different concentrations of RI-OR2-TAT (1, 3 and 6 μM), as well as the vehicle (PBS with 0.005% Tween 20), over the immobilized ligand or control surface, in parallel.
These experiments were conducted using a Sensi Q semi-automatic SPR machine (ICx Nomadics). This apparatus has two parallel flow cells; one was used to immobilize Aβ(1-42) fibrils (see Aβ peptides) while the other was used as “reference” (empty surface). A COOH5 sensor chip (ICx Nomadics) was employed for this purpose and the peptide was immobilized by amine coupling chemistry. Briefly, after surface activation, the peptide preparations was diluted to 10 μM in acetate buffer (pH 4.0) and then injected for 5 min at a flow rate of 30 μL/min. Any remaining activated groups were blocked with ethanolamine (pH 8.0). The final immobilization level was 5000 resonance units (1 RU=1 pg of protein/mm^2). The empty “reference” surface was prepared in parallel using the same immobilization procedure, but without addition of the peptide. Sensorgrams were then obtained via injection of two different concentrations of RI-OR2 TAT/peptide liposome (1 and 3 μM), as well as the vehicle (PBS with 0.005% Tween 20), over the immobilized ligand or control surface, in parallel, at the same time.
(In general: Surface plasmon resonance follows binding to a sensor surface in real time, without labels.)

Where [4] appears, read: read-out: Kd, binding to Aβ fibrils.

T2 sequence (P05067 672-713 limits assumed): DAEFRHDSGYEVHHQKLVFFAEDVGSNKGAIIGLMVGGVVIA
T1 sequence (P05067 672-713 limits assumed): as above

One may read the koff as the first-order rate constant of dissociation. Low readings indicate slow dissociation, high ones fast dissociation. What is called kon is the rate constant with which the complex forms. Read a low kon as slow association. Turning to `CC(=O)N[C@H](CCCNC(=N)N)C(=O)NCC(=O)N[C@H](Cc1ccccc1)C(=O)N[C@H](Cc1ccccc1)C(=O)N[C@@H](C(=O)N[C@H](CC(C)C)C(=O)N[C@H](CCCCN)C(=O)NCC(=O)N[C@H](CCCNC(=N)N)C(=O)N[C@H](CCCNC(=N)N)C(=O)N[C@H](CCCNC(=N)N)C(=O)N[C@H](CCCNC(=N)N)C(=O)N[C@H](CCC(N)=O)C(=O)N[C@H](CCCNC(=N)N)C(=O)N[C@H](CCCNC(=N)N)C(=O)N[C@H](CCCCN)C(=O)N[C@H](CCCCN)C(=O)N[C@H](CCCNC(=N)N)C(=O)NCC(=O)N[C@H](Cc1ccc(O)cc1)C(N)=O)C(C)C` [RI-OR2-TAT, Ac-rGffvlkGrrrrqrrkkrGy-NH2] (Ac-[dR]G[dF][dF][dV][dL][dK]G[dR][dR][dR][dR][dQ][dR][dR][dK][dK][dR]G[dY]-NH2), the “effect on Aβ42 toxicity to cells” value in data set [1] is reported as “inhibits the toxic effects of Aβ42”. In data set [2] (48 h incubation of Aβ42, molar ratios 1:1, 1:2, 1:4 and 1:10 (inhibitor:Aβ42)), the ThT fluorescence entry was “lower fluorescence”. In addition, the “increase in affinity of binding to Aβ fibrils compared to RI-OR2” value in data set [3] is listed as “approximately 1000 fold”. In data set [3] (Example 2, 1, 3 and 6 μM), this compound displayed a koff of 0.00037 ± 1.5e-08 s⁻¹. For the same compound, in data set [3] (Example 2, 1, 3 and 6 μM), the kon amounted to 3680 ± 615 M⁻¹ s⁻¹. Besides, the Kd in data set [3] (Example 2, Langmuir 1:1 interaction model, read-out: calculated apparent affinity value (Kd)) is 58 to 125 nM; in data set [3] (Example 7, 1 and 3 μM, read-out: Kd, binding to Aβ fibrils), 15 to 75 nM; in data set [3] (setting [4]) it was 41 to 75 nM. Besides, the “binding affinity for Aβ42 fibrils relative to RI-OR2” value in data set [3] (Example 2, versus Kd=9.5 μM) is given as about 100 fold. Besides, in data set [3] (Example 7), the “binding affinity relative to peptide without TAT” value is listed as “approximately 1000 times”.

In the case of “PINPs: RI-OR2-TAT covalently attached to nanoliposomes (cholesterol:sphingomyelin [1:1] with 2.5% maleimide) via an additional cysteine (Ac-[dR]G[dF][dF][dV][dL][dK]G[dR][dR][dR][dR][dQ][dR][dR][dK][dK][dR]G[dY][dC]; not fully specified (residue 21); also: C-terminal D-Cys coupled via its thiol to maleimide lipid of nanoliposome)”, the “reduction in aggregate formation” value in data set [2] (1:50 molar ratio of PINPS:Aβ, 48 hours, Aβ1-42 25 μM) is recorded as about 50%. Besides, the “ThT signal by 48 hours” value in data set [2] (1:500 molar ratio of PINPs (total lipids):Aβ) is recorded as “below that of Aβ1-42 alone”. The “RFU at 48 hours” value is on record as 13817 RFU in data set [2] (1 to 1 PINPS (total lipids):Aβ, Aβ1-42 25 μM); 14450 RFU in data set [2] (1 to 5 PINPS (total lipids):Aβ, Aβ1-42 25 μM); 15664 RFU in data set [2] (1 to 10 PINPS (total lipids):Aβ, Aβ1-42 25 μM); 85107 RFU in data set [2] (1 to 50 PINPS (total lipids):Aβ, Aβ1-42 25 μM); 132977 RFU in data set [2] (1 to 100 PINPS (total lipids):Aβ, Aβ1-42 25 μM); 165060 RFU in data set [2] (1 to 500 PINPS (total lipids):Aβ, Aβ1-42 25 μM). The “RFU at 48 hours” value in data set [2] (1 to 1000 PINPS (total lipids):Aβ, Aβ1-42 25 μM) worked out at 171555 RFU; in data set [2] (1 to 5000 PINPS (total lipids):Aβ, Aβ1-42 25 μM), 148012 RFU; in data set [2] (1 to 10000 PINPS (total lipids):Aβ, Aβ1-42 25 μM) it was 204059 RFU; in data set [2] (1 to 50000 PINPS (total lipids):Aβ, Aβ1-42 25 μM) it was 199514 RFU; in data set [2] (1 to 100000 PINPS (total lipids):Aβ, Aβ1-42 25 μM), 188616 RFU. The “% of control” value in data set [2] (1 to 1 PINPS:Aβ, 48 hours) turned out to be 7.1%; in data set [2] (1 to 5 PINPS:Aβ, 48 hours), 7.4%; in data set [2] (1 to 10 PINPS:Aβ, 48 hours), 8.1%; in data set [2] (1 to 50 PINPS:Aβ, 48 hours) it was 44.0%; in data set [2] (1 to 100 PINPS:Aβ, 48 hours) it was 68.8%; in data set [2] (1 to 500 PINPS:Aβ, 48 hours), 85.5%. The “% of control” value in data set [2] (1 to 1000 PINPS:Aβ, 48 hours) came out at 88.8%; in data set [2] (1 to 5000 PINPS:Aβ, 48 hours), 76.6%; in data set [2] (1 to 10000 PINPS:Aβ, 48 hours) it was 105%; in data set [2] (1 to 50000 PINPS:Aβ, 48 hours) it was 103%; in data set [2] (1 to 100000 PINPS:Aβ, 48 hours) it was 97.0%. The Kd in data set [3] (setting [4]) fell in the range of 14 to 44 nM.

(Values after patent US9579358B2, “Compositions for binding to amyloid proteins” (LANCASTER UNIVERSITY BUSINESS ENTERPRISES LIMITED, priority 2011, dated 2017).)
